Experiments:
Test in all cases: ITC; peptide (100 uM stock in ddH2O) titrated into PadeB1 or variant (5-10 uM) in the sample cell; 50 mM Tris, 5 mM MgCl2, pH 8.0; 25 °C; One Set of Sites model; triplicate
[1] = molecular target: PadeB1 (Paenibacillus dendritiformis C454)
[2] = molecular target: PadeB1 D23A (Paenibacillus dendritiformis C454)
[3] = molecular target: PadeB1 D79A (Paenibacillus dendritiformis C454)
[4] = molecular target: PadeB1 I61A (Paenibacillus dendritiformis C454)
[5] = molecular target: PadeB1 K28A (Paenibacillus dendritiformis C454)
[6] = molecular target: PadeB1 N40A (Paenibacillus dendritiformis C454)
[7] = molecular target: PadeB1 W49A (Paenibacillus dendritiformis C454)
[8] = molecular target: PadeB1 Y38A (Paenibacillus dendritiformis C454)

Kd [1]	Kd [2]	Kd [3]	Kd [4]	Kd [5]	Kd [6]	Kd [7]	Kd [8]	Substance
4 nM	–	–	–	–	–	–	–	full-length precursor peptide GP-PadeA
5.3 nM	2.4 nM	150 nM	73 nM	2.7 nM	16 nM	140 nM	6.2 nM	leader peptide of PadeA

— article PMC5067487
